This is an account of results in US20200408687, “Polarization-Based Fluorescent Nucleic Acid Detection” (The General Hospital Corporation, published 2020).

The data set addresses Taq DNA polymerase (UniProt P19821 P19821:1-832). Kind of data set: EMSA; band of key/amplicon hybrid shifted on adding Taq; 4 mM MgCl2, 20 mM Tris-HCl pH 8.3, 20 mM KCl, room temp; text does not name the individual keys run. The settings on record: tags: New England Biolabs (band shift); Maxima Hot Start Taq, Thermo Scientific, in PAD assay. As to the method:
Electrophoretic Band Shift Experiment Solution containing 100 or 200 nM detection key, PCR products and 12.5 U Taq DNA polymerase (New England Biolabs) in 20 mM Tris-HCl (pH 8.3), 20 mM KCl, 5 mM (NH4)2SO4, and 4 mM MgCl2 was incubated at room temperature for 20 min. The solution was mixed with 6× loading buffer and subjected to electrophoresis on a 20% polyacrylamide gel (Life technologies). The analysis was carried out in 1× TBE (100 mM Tris, 90 mM Borate, 1 mM EDTA) at 150 V for 160 min at 4° C. After GelRed (Biotium) staining, gels were scanned using a UV transilluminator. DNA polymerase was neither fluorescent nor stained by the dye.
The sequence homology among genus types was kept <50% to minimize non-specific binding. When tested, the HAI keys assumed high specificity. […] Electrophoretic band-shift analysis confirmed that the detection keys, in the presence of complementary target amplicon, bound to DNA polymerase and inhibited its catalytic activity (see FIG. 24). […] This confirmed the binding between detection keys and DNA polymerase.
A general note: Mobility shift assays separate free from complexed probe on a gel.

Taq DNA polymerase, sequence (P19821 whole entry, one chain of several): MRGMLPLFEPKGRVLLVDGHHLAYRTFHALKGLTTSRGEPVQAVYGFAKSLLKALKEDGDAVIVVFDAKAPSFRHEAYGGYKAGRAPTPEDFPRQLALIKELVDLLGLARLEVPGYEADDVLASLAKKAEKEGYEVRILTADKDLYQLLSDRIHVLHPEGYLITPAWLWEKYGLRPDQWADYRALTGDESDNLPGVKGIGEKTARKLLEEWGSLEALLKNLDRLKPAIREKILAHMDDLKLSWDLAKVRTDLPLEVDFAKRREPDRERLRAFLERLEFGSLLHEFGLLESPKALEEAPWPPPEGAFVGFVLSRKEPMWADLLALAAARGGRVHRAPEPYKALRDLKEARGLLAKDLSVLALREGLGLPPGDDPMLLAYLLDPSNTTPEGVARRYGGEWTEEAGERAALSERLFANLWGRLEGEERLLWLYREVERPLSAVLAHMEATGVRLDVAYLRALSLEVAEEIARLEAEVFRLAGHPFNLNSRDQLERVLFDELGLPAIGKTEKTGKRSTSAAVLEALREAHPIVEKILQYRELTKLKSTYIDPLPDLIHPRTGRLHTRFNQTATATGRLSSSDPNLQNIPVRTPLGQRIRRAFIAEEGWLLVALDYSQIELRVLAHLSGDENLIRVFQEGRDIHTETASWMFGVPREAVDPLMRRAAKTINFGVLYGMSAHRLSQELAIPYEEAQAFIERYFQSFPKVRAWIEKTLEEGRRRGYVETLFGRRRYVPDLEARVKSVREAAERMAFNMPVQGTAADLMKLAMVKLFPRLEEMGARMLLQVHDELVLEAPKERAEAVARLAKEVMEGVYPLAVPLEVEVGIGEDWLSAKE

B1: Escherichia detection key / Escherichia amplicon (mixed)
DNA 1: CAATGTACAGTATTGTGGAGGAAGGGAGTAAAGTTAAT
DNA 2: TGCGGGTAACGTCAATGAGCAAAGGTATTAACTTTACTCCCTTCCTCCA
modifications: amplicon strand dU in place of dT in dUTP assay
For the molecule B1, the binding result is on record as “binds”.
